From paper PMC3905857, “Structure and properties of the esterase from non-LTR retrotransposons suggest a role for lipids in retrotransposition” (Nucleic Acids Research, 2013)

Columns and labels:
purified protein = substrate: CC(=O)Oc1ccc([N+](=O)[O-])cc1; experiment: purified protein; format: biochemical, Danio rerio; details: 20 mM Tris/HCl pH 7.5, 250 mM NaCl, 5 mM MgCl2, 25°C
[1] = target: the molecule itself; experiment: SEC-MALS; Superdex 75 (10/300 GL) followed online by MALLS; 20 mM Tris/HCl pH 7.5, 250 mM NaCl, 5 mM MgCl2

| Protein | Km (purified protein) [µM] | kcat (purified protein) [s⁻¹] | stoichiometry N [1] |
| --- | --- | --- | --- |
| ZfL2-1 esterase (ZfL2-1_ES) (Danio rerio) (protein, esterase domain D136-I302, codon-optimized synthetic gene, pETM41P, E. coli BL21-Star; 19 kDa monomer (MBP apparently removed)) DVAIIGDSIVRHVRAASSKGNKVRTFCFPGARVKNISTQIPTILGAAESPGAVVLHVGTNDTGLRQSEILKKDFRSLIETVRRTSPATQIIVSGPLPTYRRGNERFSRLLALNEWLITWCKEQKLLFANNWNLFWERPRLFRPDGLHPSRAGAELLSDNISRLLRTI | 430 ± 100 | 0.32 ± 0.07 | – |
| ZfL2-1_CC, N-terminal construct comprising the coiled coil domain of the ZfL2-1 ORF1p (M15-T91) (domain or fragment, Danio rerio (zebrafish), UniProt Q3LG57 15-91, looked up, ORF1 protein (ORF1p) of the ZfL2-1 non-LTR retrotransposon, Danio rerio, Uniprot Q3LG57, residues M15-T91; Expressed from pETM41P from a codon-optimized synthetic template) MEALELELEEVESQIRALVVRRSRLRERLLAVPNAKAVSSPKVRGNYNHIIPSTSTPRPSLSRPSAPGARLSQASFT | – | – | 2 |
